In IntAct's records for PubMed 22474355:

B1: RNA-silencing factor ers1 (Schizosaccharomyces pombe (strain ATCC 38366 / 972)), O94717 (parent)
chain: MGKVSANNQSGFFKFYIDTALLLNAEFISSFTNCINSEYNGKVKISYSSSSQQFKVIVYEEHKREAFSLFEEIVQKLKRESTVYKKPRLDIHPFGQLHYDFTTLLNFQRYLDLGYGIEDVKIKENEDIVKSKVGKKPTSSDFYIPCLIKPKIITPFEWEGNFKQVIYSPTVYNGSFKRLFYLPDNNDLLKEFAHATNTKYKASLKDNKIVVLANNDQDINAMLEKMKHIENLVSQKVYEYPEETLVYAGKIAPCQLKFLKLKFENEILYTAMHTTSIFKSVFNILGSFYTMRLLRNKHDGDSYELVPVFAKNPSKTPPCNDNFKIFSDDIKLIGCKIFAGVSLNFSSPKPAHRFYELNKTSSNLSIPVLQKPSNFHSSSTELSDNSIHQGRRAVDPVVNQNNPSNFEEMIMNKLNKLPTIDKQILGTSSLTHFQDKTTAIEHSINKSNSKQPPRFKFQLPPRPTSNTLPLEPEEELVTRYSVSSDGNTVDEAITKQSQTFQLVNSNEFNEVNANDVHKSLRQNCAKLDFDDSKSKNLLSVECLELDKGSDCSTPKSGSLTPSIDMKFLRLQDEKMDDLGDNYYTILMSSNPVSSYGVGSLYLFQPKIVCSEKYINHEEIDNMNLKSLHRWLSRSLHVLQSFSGEIELNLEFGVILYPNISSDVSACSHGFMNIYKDLNLPRSYFADCITKSVSNIDSLLNTPVKILFGRTEYTYPLIEHEVLDSKNYFVFKGSLLFTDDKRNKTEDSTVFFSMICSSKLDQFAFYKDSKQSSTCTINFPLALWDSRLRIETKVPLNDAILTEFSKSIRFRNVNKDLLLVFGNMEDRVIIHSVTRINENSVPFNKNLLPHSLEFILKCSKVKSYDISPSSINSKEAFVCLDRSKESKPIESCFSLSIQSVYMQSQFKYNNSIRAGETAPWKLANKQFIGGAITENVSDLYTAAIIMVNQLGGIHPTI
partner: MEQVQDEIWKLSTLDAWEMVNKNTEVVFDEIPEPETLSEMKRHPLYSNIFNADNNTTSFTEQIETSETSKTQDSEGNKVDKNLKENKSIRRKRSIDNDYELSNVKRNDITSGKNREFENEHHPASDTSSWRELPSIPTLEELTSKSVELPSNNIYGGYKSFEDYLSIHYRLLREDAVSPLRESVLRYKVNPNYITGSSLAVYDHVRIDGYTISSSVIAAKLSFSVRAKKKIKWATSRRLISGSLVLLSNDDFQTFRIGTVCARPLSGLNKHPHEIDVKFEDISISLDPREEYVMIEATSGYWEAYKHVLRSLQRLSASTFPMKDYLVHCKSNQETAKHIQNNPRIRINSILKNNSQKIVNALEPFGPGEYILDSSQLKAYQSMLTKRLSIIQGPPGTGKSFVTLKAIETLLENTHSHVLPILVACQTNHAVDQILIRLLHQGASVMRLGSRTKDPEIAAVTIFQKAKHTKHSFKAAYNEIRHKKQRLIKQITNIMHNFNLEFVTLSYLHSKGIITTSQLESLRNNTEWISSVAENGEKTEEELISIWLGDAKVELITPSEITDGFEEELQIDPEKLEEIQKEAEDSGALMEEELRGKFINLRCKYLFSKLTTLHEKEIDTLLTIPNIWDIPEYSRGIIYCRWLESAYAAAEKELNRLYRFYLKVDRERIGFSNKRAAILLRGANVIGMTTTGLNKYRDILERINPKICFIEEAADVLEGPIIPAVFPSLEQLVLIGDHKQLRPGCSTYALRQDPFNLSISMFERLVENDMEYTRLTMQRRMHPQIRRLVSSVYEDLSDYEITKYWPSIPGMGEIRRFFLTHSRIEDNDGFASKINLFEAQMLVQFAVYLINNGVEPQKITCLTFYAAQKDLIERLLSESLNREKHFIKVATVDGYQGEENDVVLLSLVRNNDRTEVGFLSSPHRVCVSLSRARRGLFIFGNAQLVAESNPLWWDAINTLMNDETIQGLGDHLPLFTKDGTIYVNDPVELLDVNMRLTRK
B2: RNA-silencing factor ers1 (Schizosaccharomyces pombe (strain ATCC 38366 / 972)), O94717 (parent)
chain: B1 chain
partner: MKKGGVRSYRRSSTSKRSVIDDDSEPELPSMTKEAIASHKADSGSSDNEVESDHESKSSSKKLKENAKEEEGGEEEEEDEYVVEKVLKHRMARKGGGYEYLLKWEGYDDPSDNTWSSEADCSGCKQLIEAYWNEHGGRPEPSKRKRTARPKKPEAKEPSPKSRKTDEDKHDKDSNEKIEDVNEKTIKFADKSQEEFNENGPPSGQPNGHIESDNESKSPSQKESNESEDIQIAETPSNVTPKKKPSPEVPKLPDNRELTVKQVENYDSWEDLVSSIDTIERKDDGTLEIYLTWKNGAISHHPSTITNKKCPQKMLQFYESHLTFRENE

Variants of: B1
Settings: with hrr1_schpo hrr1, O74465

| effect of a mutation on the interaction | Variant |
| --- | --- |
| decreasing interaction strength | S234P |

Variants of: B2
Settings: with swi6_schpo swi6, P40381

| effect of a mutation on the interaction | Variant |
| --- | --- |
| decreasing interaction strength | S234P |
